Experimental data published in patent publication US20240294670A1 (University of Texas, published 2024).

Tests used:
Test in all cases: anti-His co-IP of rCHI3L1 from Kupffer cell lysate, MS; listed under 'proteins bound to CHI3L1'
[1] = target: T1, Q546G4_MOUSE (mouse, UniProt Q546G4 25-608)
T1 construct: also called sp|Q546G4|Q546G4_MOUSE
Protocol: (§1) CHI3L1 interacts with CD44 on KCs. To further understand how CHI3L1 mediates the function of KCs to recruit platelets, the inventors set out to identify its receptor on KCs. They isolated KCs from WT mice treated with APAP for 3 h and incubated the cells with His-tagged rCHI3L1. The cell lysate was subjected to immunoprecipitation using an anti-His antibody. The “pulled down” fraction was subjected to LC/MS analyses. A partial list of proteins identified, including CHI3L1 itself, is shown in (Extended Data Table 1). Because CD44 is a cell membrane protein, the inventors decided to investigate it is a receptor for CHI3L1. They performed/immunoprecipitation experiments using liver homogenates obtained from WT and CD44^{-/-} mice after APAP treatment. […] Moreover, the inventors incubated rhCHI3L1 with human CD44 and then immunoprecipitated with an anti-CD44 antibody. The data confirmed a direct binding between CHI3L1 and CD44 (FIG. 3C). Consistent with the notion that many cell types express CD44, they detected CD44 express on various hepatic non-parenchymal cells (NPCs) except B cells and DCs (summarized in Extended Data Table 2). However, when they incubated liver NPCs with His-tagged rCHI3L1, the inventors observed that the only CD44-expressing cells that could bind to CHI3L1 were KCs (FIG. 3D).

[2] = target: T2, Q3UA81_MOUSE (mouse, UniProt Q3UA81 2-462)
T2 construct: also called tr|Q3UA81|Q3UA81_MOUSE
T2 sequence: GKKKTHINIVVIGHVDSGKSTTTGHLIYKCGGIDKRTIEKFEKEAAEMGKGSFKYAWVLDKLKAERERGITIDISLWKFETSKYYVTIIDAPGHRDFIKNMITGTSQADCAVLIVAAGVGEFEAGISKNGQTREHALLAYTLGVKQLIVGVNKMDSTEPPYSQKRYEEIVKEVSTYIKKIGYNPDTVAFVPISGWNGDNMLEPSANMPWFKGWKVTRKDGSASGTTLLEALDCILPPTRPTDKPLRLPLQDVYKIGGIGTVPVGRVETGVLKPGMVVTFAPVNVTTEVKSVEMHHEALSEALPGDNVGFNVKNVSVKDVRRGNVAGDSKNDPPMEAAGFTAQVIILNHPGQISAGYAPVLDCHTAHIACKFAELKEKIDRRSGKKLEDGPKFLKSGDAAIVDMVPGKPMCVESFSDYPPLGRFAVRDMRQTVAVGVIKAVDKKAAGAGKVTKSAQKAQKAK
Protocol: as §1

[3] = target: T3, D3Z041_MOUSE (mouse, UniProt D3Z041 1-699)
T3 construct: also called tr|D3Z041|D3Z041_MOUSE
T3 sequence: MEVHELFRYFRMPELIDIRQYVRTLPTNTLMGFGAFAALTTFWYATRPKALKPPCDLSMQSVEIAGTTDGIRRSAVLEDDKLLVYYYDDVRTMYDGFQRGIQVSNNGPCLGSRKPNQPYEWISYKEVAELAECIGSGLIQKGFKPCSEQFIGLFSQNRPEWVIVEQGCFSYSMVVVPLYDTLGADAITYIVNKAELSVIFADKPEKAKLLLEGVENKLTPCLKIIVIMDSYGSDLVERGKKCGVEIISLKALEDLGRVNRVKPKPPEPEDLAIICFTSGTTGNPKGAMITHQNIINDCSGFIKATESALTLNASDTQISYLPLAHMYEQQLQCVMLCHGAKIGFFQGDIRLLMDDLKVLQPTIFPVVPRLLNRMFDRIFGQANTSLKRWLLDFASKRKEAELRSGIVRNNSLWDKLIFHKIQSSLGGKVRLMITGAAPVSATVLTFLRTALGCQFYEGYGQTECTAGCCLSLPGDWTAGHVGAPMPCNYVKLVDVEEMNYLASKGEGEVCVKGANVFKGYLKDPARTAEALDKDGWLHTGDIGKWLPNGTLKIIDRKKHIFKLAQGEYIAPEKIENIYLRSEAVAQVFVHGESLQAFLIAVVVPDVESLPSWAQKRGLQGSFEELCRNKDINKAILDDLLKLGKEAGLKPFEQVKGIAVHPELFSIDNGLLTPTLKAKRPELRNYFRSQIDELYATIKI
Protocol: as §1

Measured: binding result

B1: recombinant mouse CHI3L1 (ligand)
chain: not shown
notes: His-tagged; also called mCHI3L1; mChi3l1
binds: all assays above
